One may read the Kd as the constant that tells how readily two partners part at equilibrium. One may read the stoichiometry N as a count of units in the complex or per binding partner.

Test [1] deals with T1, Chicken calmodulin (CaM) (chicken, UniProt P62149 1-149). Put plainly: NMR titration.
Test [2] concerns the target recombinant rAQP4ct protein (complete cytosolic C-terminal domain of human AQP4, residues 254-323) (human, UniProt P55087-1 254-323). Put plainly: steady-state intrinsic Trp fluorescence.
For test [3], the target named is T1, Chicken calmodulin (CaM). In words: steady-state intrinsic Trp fluorescence.

For Ac-TARRWGKSGPLSTRENIMVAFKGVWT-NH2 [human AQP4nt synthetic peptide (residues 6-31, two Cys modified to Ser)], in the test with Chicken calmodulin (CaM) [1], the dissociation constant (Kd) was 3.4 µM and the “stoichiometry N” value is 1.

Ac-VEFKRRFKEAFSKAAQQTKGSYMEV-NH2 [human AQP4ct synthetic peptide (residues 256-280)]: in the test with Chicken calmodulin (CaM) [1], the “apparent Kd, C-lobe of CaM (first binding event)” value was determined as 3.6 µM; the “apparent Kd, N-lobe of CaM (second binding event)” value was found to be 114 µM; the “stoichiometry N” value amounted to 2.

Turning to PTARRWGKSGPLSTR [recombinant rAQP4nt6-19 truncated peptide], the binding result in the test with Chicken calmodulin (CaM) [1] is listed as “binds”.

B1: CaM bound AQP4nt-W30A peptide (complex)
chain 1: […]
chain 2: PTARRWGKSGPLSTRENIMVAFKGVAT
On to B1, for which, in test [2], the binding result was “binds”.

For the molecule PTARRWGKSGPLSTRENIMVAFKGVAT [recombinant rAQP4ntW30A peptide], the binding result in the test with Chicken calmodulin (CaM) [3] is reported as “binds”.

The record behind these values is doi:10.1101/2021.06.29.450403 (bioRxiv, 2021).
